Source: paper PMC5386136

Columns and labels:
[1] = target: SHANK3 SPN-ARR (residues 1-348) (rat); assay: ITC
[2] = target: SHANK3 SPN(R12C)-ARR mutant (rat); assay: ITC

Rap1b (residues 1-166) (from UniProt P61224 1-166) (natural protein)
Kd [1]: 200 nM | Kd [2]: 2200 nM
